From the RNAGym collection of RNA variant scans (doi:10.1021/acssynbio.7b00057)

B1: Pistol ribozyme (parent)
chain: GGGUCGUUGUUCCAUAAUCGCGUGGAUAUGGCACGCAAGUUUCUACCGGGCACCGUAAAUGUCCGACUGGAGCCGUUCGGGCGGCUAUAAACAGACCUCAGGCCCGAAGCGUGGCGGCACCUGCCGCCGGUGGUAAAAAAGAUCGGAAGAGCACACGUCU

Variants of: B1
Assay: aptazyme ON/OFF ratio, guanine; higher = stronger switching; co-transcriptional cleavage with and without guanine

Row | Variant | aptazyme ON/OFF ratio
1 | U7C G9C U10G U11G C12G | 1.12
2 | U7C G9C U10G U11G C12U | 1.07
3 | U7C G9C U10G C12U | 1.2
4 | U7C G9C U10G C12A | 1.12
5 | U7C G9C U10G C12G | 1.13
6 | U7C G9C U11G C12U C13A | 1.1
7 | U7C G9C U11G C12U C13G | 1.12
8 | U7C G9C U11G C12U C13U | 1.21
9 | U7C G9C U10G U11C C12A | 1.19
10 | U7C G9C U10G U11C C12U | 1.11
11 | U7C G9C U10G U11C C12G | 1.25
12 | U7C G9C U10C U11C C12A C13U | 1.04
13 | U7C G9C U10C U11C C12A C13G | 1.05
14 | U7C G9C U10C U11C C12A C13A | 1.04
15 | U7C G9U C12G C13G | 1.1
16 | U7C G9U C12G C13A | 1.11
17 | U7C G9U C12G C13U | 1.15
18 | U7C G9C U10G U11C C13G | 1.04
19 | U7C G9C U10G U11C C13U | 1.06
20 | U7C G9C U10G U11C C13A | 1.1
21 | U7C G9C U10G C12A C13G | 1.14
22 | U7C G9C U10G C12A C13U | 1.12
23 | U7C G9C U10G C12A C13A | 1.15
24 | U7C G9C U11A C12G C13U | 1.14

Row | Variant | aptazyme ON/OFF ratio
25 | U7C G9C U11A C12G C13G | 1.07
26 | U7C G9C U11A C12G C13A | 1.12
27 | U7C G9U U10A U11A C12A | 1.2
28 | U7C G9U U10A U11A C12G | 1.29
29 | U7C G9U U10A U11A C12U | 1.36
30 | U7C G9U U10C U11C C13G | 1.06
31 | U7C G9U U10C U11C C13A | 1
32 | U7C G9U U10C U11C C12G C13G | 1.03
33 | U7C G9U U10C U11C C12G C13A | 1.03
34 | U7C G9U U10C U11C C12G C13U | 1.02
35 | U7C G9C U10C U11G C12G C13U | 1.12
36 | U7C G9C U10C U11G C12G C13A | 1.11
37 | U7C G9C U10C U11G C12G C13G | 1.11
38 | U7C G9C U10G U11G C12G C13G | 1.11
39 | U7C G9C U10G U11G C12G C13A | 1.08
40 | U7C G9C U10G U11G C12G C13U | 1.09
41 | U7C G9U U10A U11C C12U | 1.1
42 | U7C G9U U10A U11C C12A | 1.29
43 | U7C G9U U10A U11C C12G | 1.43
44 | U7C G9C U11A C12U C13U | 1.05
45 | U7C G9C U11A C12U C13G | 1.03
46 | U7C G9C U11A C12U C13A | 1.02
47 | U7C G9C U10G U11A C13G | 1.05
48 | U7C G9C U10G U11A C13U | 1.11

Row | Variant | aptazyme ON/OFF ratio
49 | U7C G9C U10G U11A C13A | 1.17
50 | U7C G9U U10A U11A C13G | 1.04
51 | U7C G9U U10A U11A C13A | 1.26
52 | U7C G9U U10A U11A C13U | 1.25
53 | U7C G9C U10G C12G C13U | 1.1
54 | U7C G9C U10G C12G C13A | 1.11
55 | U7C G9C U10G C12G C13G | 1.07
56 | U7C G9C U10G U11C C12A C13A | 1.12
57 | U7C G9C U10G U11C C12A C13G | 1.09
58 | U7C G9C U10G U11C C12A C13U | 1.11
59 | U7C G9C U10C U11A C12U C13U | 1.03
60 | U7C G9C U10C U11A C12U C13G | 1.07
61 | U7C G9C U10C U11A C12U C13A | 1.03
62 | U7C G9C U10C U11A C12G | 0.941
63 | U7C G9C U10C U11A C12U | 1
64 | U7C G9C U10C U11A C12A | 1.09
65 | U7C G9U C12A C13U | 1.19
66 | U7C G9U C12A C13G | 1.08
67 | U7C G9U C12A C13A | 1.18
68 | U7C G9U U10A C12A C13U | 1.36
69 | U7C G9U U10A C12A C13G | 1.14
70 | U7C G9U U10A C12A C13A | 1.37
71 | U7C G9C U10A U11C C12U | 1.04
72 | U7C G9C U10A U11C C12A | 1.07

Row | Variant | aptazyme ON/OFF ratio
73 | U7C G9C U10A U11C C12G | 1.26
74 | U7C G9U U10A C13G | 1.04
75 | U7C G9U U10A C13U | 1.22
76 | U7C G9U U10A C13A | 1.18
77 | U7C G9U U10C C12A C13G | 1.09
78 | U7C G9U U10C C12A C13U | 1.09
79 | U7C G9U U10C C12A C13A | 1.09
80 | U7C G9C U11C C12A | 1.03
81 | U7C G9C U11C C12U | 1.04
82 | U7C G9C U11C C12G | 1.04
83 | U7C G9C U11G C12G C13G | 1.09
84 | U7C G9C U11G C12G C13U | 1.07
85 | U7C G9C U11G C12G C13A | 1.08
86 | U7C G9C U10C U11G C12A C13G | 1.05
87 | U7C G9C U10C U11G C12A C13U | 1.04
88 | U7C G9C U10C U11G C12A C13A | 1.14
89 | U7C G9C U10C C13G | 1.04
90 | U7C G9C U10C C13A | 1.04
91 | U7C G9C U10C C13U | 1.08
92 | U7C G9U U10A U11A C12A C13G | 1.1
93 | U7C G9U U10A U11A C12A C13U | 1.18
94 | U7C G9U U10A U11A C12A C13A | 1.3
95 | U7C G9U U10C U11A C12A C13G | 1.04
96 | U7C G9U U10C U11A C12A C13U | 1.15

Row | Variant | aptazyme ON/OFF ratio
97 | U7C G9U U10C U11A C12A C13A | 1.15
98 | U7C G9U U10C U11A C12U C13G | 1.04
99 | U7C G9U U10C U11A C12U C13U | 1.16
100 | U7C G9U U10C U11A C12U C13A | 1.13
101 | U7C G9C U11G C13A | 1.03
102 | U7C G9C U11G C13G | 1.03
103 | U7C G9C U11G C13U | 1.06
104 | U7C G9U U10A U11G C12A C13G | 1.1
105 | U7C G9U U10A U11G C12A C13U | 1.18
106 | U7C G9U U10A U11G C12A C13A | 1.05
107 | U7C G9C U10A U11C C12A C13A | 1.08
108 | U7C G9C U10A U11C C12A C13U | 1.05
109 | U7C G9C U10A U11C C12A C13G | 1.07
110 | U7C G9C U10A U11C C13A | 1.02
111 | U7C G9C U10A U11C C13U | 1.02
112 | U7C G9C U10A U11C C13G | 1.03
113 | U7C G9U C12A | 1.13
114 | U7C G9U C12G | 1.14
115 | U7C G9U C12U | 1.07
116 | U7C G9C U10G U11G C12A C13A | 1.08
117 | U7C G9C U10G U11G C12A C13G | 1.12
118 | U7C G9C U10G U11G C12A C13U | 1.09
119 | U7C G9C U10C U11C C12U C13U | 1.01
120 | U7C G9C U10C U11C C12U C13A | 1.03

Row | Variant | aptazyme ON/OFF ratio
121 | U7C G9C U10C U11C C12U C13G | 1.02
122 | U7C G9C U10C U11C C12U | 1.01
123 | U7C G9C U10C U11C C12G | 1.03
124 | U7C G9C U10C U11C C12A | 1.03
125 | U7C G9U U10A U11G C12A | 1.08
126 | U7C G9U U10A U11G C12G | 1.19
127 | U7C G9U U10A U11G C12U | 1.3
128 | U7C G9C U10G U11C C12G C13G | 1.13
129 | U7C G9C U10G U11C C12G C13A | 1.16
130 | U7C G9C U10G U11C C12G C13U | 1.12
131 | U7C G9U U10C C12U | 1.09
132 | U7C G9U U10C C12G | 1.09
133 | U7C G9U U10C C12A | 1.1
134 | U7C G9C U11A C12A C13A | 1.08
135 | U7C G9C U11A C12A C13U | 1.04
136 | U7C G9C U11A C12A C13G | 1.07
137 | U7C G9C U10A U11G C12U C13A | 1.12
138 | U7C G9C U10A U11G C12U C13U | 1.13
139 | U7C G9C U10A U11G C12U C13G | 1.08
140 | U7C G9U U10A C12U C13U | 1.22
141 | U7C G9U U10A C12U C13A | 1.15
142 | U7C G9U U10A C12U C13G | 1.11
143 | U7C G9C U10C C12U C13G | 1.07
144 | U7C G9C U10C C12U C13A | 1.04

Row | Variant | aptazyme ON/OFF ratio
145 | U7C G9C U10C C12U C13U | 1.07
146 | U7C G9C U10C C12A C13U | 1.04
147 | U7C G9C U10C C12A C13G | 1.06
148 | U7C G9C U10C C12A C13A | 1.06
149 | U7C G9U U10C U11C | 1.05
150 | U7C G9U U10C U11A | 1.11
151 | U7C G9C U10C U11G C13A | 1.12
152 | U7C G9C U10C U11G C13G | 1.05
153 | U7C G9C U10C U11G C13U | 1.19
154 | U7C G9U U10C U11C C12U C13A | 1.02
155 | U7C G9U U10C U11C C12U C13U | 1.05
156 | U7C G9U U10C U11C C12U C13G | 1.02
157 | U7C G9C U10C | 1.14
158 | U7C G9C U10G | 1.08
159 | U7C G9U U10C U11C C12A C13A | 1.04
160 | U7C G9U U10C U11C C12A C13U | 1.01
161 | U7C G9U U10C U11C C12A C13G | 1.08
162 | U7C G9U U10A U11A C12U C13G | 1.14
163 | U7C G9U U10A U11A C12U C13A | 1.27
164 | U7C G9U U10A U11A C12U C13U | 1.25
165 | U7C G9U C13G | 1.04
166 | U7C G9U C13A | 1.04
167 | U7C G9U C13U | 1.06
